The results in this text go back to US20220242962A1 (APTEVO RESEARCH AND DEVELOPMENT, published 2022).

Test [1] has as its target T1, Full-length Cyno 4-1BB (cynomolgus monkey, UniProt Q07011 24-255 (human entry)).
T1 construct: on Jurkat or CHO cells; also called FOB006; cynomolgus 4-1BB
T1 chain: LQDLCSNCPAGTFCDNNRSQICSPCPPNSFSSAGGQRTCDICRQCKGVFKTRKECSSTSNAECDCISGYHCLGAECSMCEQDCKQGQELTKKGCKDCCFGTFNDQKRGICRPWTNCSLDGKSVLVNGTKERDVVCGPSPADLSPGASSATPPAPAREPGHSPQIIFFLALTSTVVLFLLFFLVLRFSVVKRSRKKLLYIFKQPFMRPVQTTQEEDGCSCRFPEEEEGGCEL
As to the kind of experiment: flow cytometry on Jurkat cells transfected with cynomolgus 4-1BB, goat anti-human Fc secondary antibody, MFI (Mean). Here is the method: (§1) Serial dilutions of ADAPTIR™ constructs were incubated with cells transfected with human or cynomolgus ECD and subsequently labelled with a fluorescently-conjugated goat-α-human Fc secondary antibody. […] (See Example 16.)

Test [2] concerns the target T2, Human OX40 ECD-AFH (human).
T2 construct: ECD'; entry includes the C-terminal tags; also called OXF003; Human OX40 ECD-avi-flag-his
T2 chain: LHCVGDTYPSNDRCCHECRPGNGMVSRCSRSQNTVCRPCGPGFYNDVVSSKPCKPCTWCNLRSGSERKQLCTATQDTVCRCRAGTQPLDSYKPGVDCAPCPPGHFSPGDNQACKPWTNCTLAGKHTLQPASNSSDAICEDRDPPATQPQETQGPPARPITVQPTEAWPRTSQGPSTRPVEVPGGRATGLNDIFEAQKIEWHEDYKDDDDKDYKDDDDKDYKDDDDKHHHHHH
The test is described as follows: SPR (T200), construct captured, monomeric ECD as analyte. Here is the method: (§2) Mouse anti-human IgG (GE, BR-1008-39) at 25 μg/ml in 10 mM sodium acetate pH 5.0 was immobilized at a density of ˜10,000 response units (RU) onto each flow cell of a CM5 research-grade sensor chip (GE) by standard amine coupling chemistry. Each binding protein at approximately 100 nM in HBS-EP+ with 0.2% BSA buffer was captured in a flow cell with the immobilized anti-human IgG at a flow rate of 10 μL/min for 20 seconds, leaving one flow cell surface unmodified as the reference. Using a single-cycle kinetics mode, five different concentrations of ECD were sequentially injected through each flow cell at 30 μL/min for 300 seconds followed by a 600 second dissociation period. Regeneration was achieved by injection of 3 M MgCl₂ at a flow rate of 30 μL/min for 30 seconds followed by HBS-EP+ with 0.2% BSA buffer stabilization for 1 min.
(§3) Sensorgrams obtained from kinetic SPR measurements were analyzed by the double subtraction method. The signal from the reference flow cell was subtracted from the analyte binding response obtained from flow cells with immobilized or captured ligands. Buffer reference responses were then averaged from multiple injections. The averaged buffer reference responses were then subtracted from analyte binding responses, and the final double-referenced data were analyzed with Biacore T200 Evaluation software (2.0, GE), globally fitting data to derive kinetic parameters. All sensorgrams were fitted using a simple one-to-one binding model.

Test [3] has as its target T3, Human 4-1BB ECD-AFH (human).
T3 construct: entry includes the tags; also called FOB003; HUMAN CD137 ECD-AVI-FLAG-HIS
The description is as above. How it is done: as §2, §3

The target in test [4] is T4, Full-length Cyno OX40 (cynomolgus monkey, UniProt P43489 29-277 (human entry)).
T4 construct: on CHO-K1SV cells; also called OXF004; cynomolgus OX40
T4 chain: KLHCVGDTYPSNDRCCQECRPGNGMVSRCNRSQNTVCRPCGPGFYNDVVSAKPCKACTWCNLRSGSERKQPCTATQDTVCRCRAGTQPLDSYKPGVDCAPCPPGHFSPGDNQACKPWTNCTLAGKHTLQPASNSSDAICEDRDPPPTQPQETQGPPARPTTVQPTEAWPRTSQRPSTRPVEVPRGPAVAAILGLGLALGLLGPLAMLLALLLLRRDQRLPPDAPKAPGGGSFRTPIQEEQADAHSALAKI
As to the kind of experiment: flow cytometry on CHOK1SV cells transfected with cynomolgus OX40, goat anti-human Fc secondary antibody, MFI (Mean). How it is done:
as §1

For test [5], the target named is T5, Full-length Human 4-1BB (human, UniProt Q07011 24-255).
T5 construct: also called FOB005; CD137
The test is described as follows: flow cytometry, Jurkat cells expressing human 4-1BB. Here is the method: as §1

For test [6], the target named is T6, Full-length Human OX40 (human, UniProt P43489 29-277).
T6 construct: also called OXF001; human OX40/CHO
T6 sequence: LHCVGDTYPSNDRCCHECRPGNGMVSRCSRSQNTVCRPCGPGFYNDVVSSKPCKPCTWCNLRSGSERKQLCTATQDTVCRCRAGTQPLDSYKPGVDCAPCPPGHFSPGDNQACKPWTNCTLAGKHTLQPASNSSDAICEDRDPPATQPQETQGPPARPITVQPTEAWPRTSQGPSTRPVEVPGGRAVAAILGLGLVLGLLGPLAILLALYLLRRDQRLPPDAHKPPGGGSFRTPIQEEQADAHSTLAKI
As to the kind of experiment: flow cytometry, CHO cells expressing human OX40.

Test [7] concerns the target T5, Full-length Human 4-1BB. The test is described as follows: cell-based or functional assay.
In test [8] the target is T6, Full-length Human OX40. The test is described as follows: cell-based or functional assay.

T3 sequence (chain, as listed by the source limits assumed): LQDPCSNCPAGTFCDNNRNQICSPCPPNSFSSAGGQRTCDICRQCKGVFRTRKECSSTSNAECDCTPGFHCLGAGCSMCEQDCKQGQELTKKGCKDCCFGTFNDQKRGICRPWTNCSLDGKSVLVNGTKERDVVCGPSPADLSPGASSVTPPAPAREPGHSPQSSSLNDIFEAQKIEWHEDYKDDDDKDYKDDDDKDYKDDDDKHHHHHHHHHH

B1: FXX01047 (bispecific antibody)
chain: EVQLVQSGAEVKKPGASVKVSCKASGYTFTSYWMNWVRQAPGQGLEWMGNIYPGSSTTNYAQKFQGRVTMTVDTSTSTVYMELSSLRSEDTAVYYCASFSDGYYAYAMDYWGQGTLVTVSSGGGGSGGGGSGGGGSGGGGSEIVMTQSPATLSLSPGERATLSCRASQDISNYLNWYQQKPGQAVRLLIYYTSRLHSGIPARFSGSGSGTDYTLTISSLQPEDFAVYFCQQGYTLPYTFGQGTKVEIKEPKSSDKTHTCPPCPAPPAAAPSVFLFPPKPKDTLMISRTPEVTCVVVDVSHEDPEVKFNWYVDGVEVHNAKTKPREEQYNSTYRVVSVLTVLHQDWLNGKEYKCAVSNKALPAPIEKTISKAKGQPREPQVYTLPPSRDELTKNQVSLTCLVKGFYPSDIAVEWESNGQPENNYKTTPPVLDSDGSFFLYSKLTVDKSRWQQGNVFSCSVMHEALHNHYTQKSLSLSPGGGGSPSSYVLTQPPSVSVAPGQTARITCGGNNIGSKSVNWFQQKPGQAPVLVVYDDSGRPSGIPERFSGSTSGNTATLTISRVEAGDEADYYCQVWDSSSDHVVFGGGTKLTVLGGGGSGGGGSGGGGSGGGGSQVQLVESGGGVVQPGRSLRLSCAASGFTLSYYGMHWVRQAPGKGLEWVAAISHDGSDKYYADSVKGRFTISRDNSKNTLYLQMNSLRAEDTAVYYCSNDQFDPWGQGTLVTVSSR
notes: ADAPTIR scFv-Fc-scFv, anti-4-1BB N-terminal, anti-OX40 C-terminal; also called FX01047
Turning to B1, the “EC50 (read off the curve)” value in test [1] was approximately 600 pM. Further, in test [2], binding was put at a Kd of 400 pM, the koff was determined as 0.00016 s⁻¹ and the kon is 400000 M⁻¹ s⁻¹. In test [3], this molecule returned a Kd of 7000 pM, a koff of 0.002 s⁻¹ and a kon of 280000 M⁻¹ s⁻¹. For the same molecule, in test [4], the “EC50 (read off the curve)” value is approximately 2000 pM. Also, in test [5], the EC50 stood at 320 pM and the “Max MFI” value was found to be 4940 MFI. Also, in test [6], the midpoint of the response, the EC50, lay at 350 pM and the “Max MFI” value worked out at 10500 MFI. Moreover, in test [7], the “4-1BB Reporter Assay EC50” value was found to be 14 pM and the “4-1BB Reporter Assay Max induction” value amounted to 6.58e+06. Also, in test [8], the “OX40 Reporter Assay EC50” value amounted to 10 pM and the “OX40 Reporter Assay Max induction” value was determined as 1.97e+06.

B2: FXX01055 (bispecific antibody)
chain: SYVLTQPPSVSVAPGQTARITCGGNNIGSKSVNWFQQKPGQAPVLVVYDDSGRPSGIPERFSGSTSGNTATLTISRVEAGDEADYYCQVWDSSSDHVVFGGGTKLTVLGGGGSGGGGSGGGGSGGGGSQVQLVESGGGVVQPGRSLRLSCAASGFTLSYYGMHWVRQAPGKGLEWVAVISHDGSDKYYADSVKGRFTISRDNSKNTLYLQMNSLRAEDTAVYYCSNDQFDPWGQGTLVTVEPKSSDKTHTCPPCPAPPAAAPSVFLFPPKPKDTLMISRTPEVTCVVVDVSHEDPEVKFNWYVDGVEVHNAKTKPREEQYNSTYRVVSVLTVLHQDWLNGKEYKCAVSNKALPAPIEKTISKAKGQPREPQVYTLPPSRDELTKNQVSLTCLVKGFYPSDIAVEWESNGQPENNYKTTPPVLDSDGSFFLYSKLTVDKSRWQQGNVFSCSVMHEALHNHYTQKSLSLSPGGGGSPSEVQLVQSGAEVKKPGASVKVSCKASGYTFTSYWMNWVRQAPGQGLEWMGNIYPGSSTTNYAQKFQGRVTMTVDTSTSTVYMELSSLRSEDTAVYYCASFSDGYYAYAMDYWGQGTLVTVSSGGGGSGGGGSGGGGSGGGGSEIVMTQSPATLSLSPGERATLSCRASQDISNYLNWYQQKPGQAVRLLIYYTSRLHSGIPARFSGSGSGTDYTLTISSLQPEDFAVYFCQQGYTLPYTFGQGTKVEIKR
notes: ADAPTIR scFv-Fc-scFv, anti-OX40 N-terminal, anti-4-1BB C-terminal; also called FX01055
B2: the “EC50 (read off the curve)” value in test [1] was approximately 1000 pM. Also, in test [2], binding was put at a Kd of 300 pM, the koff came to 0.00013 s⁻¹ and the kon was found to be 440000 M⁻¹ s⁻¹. In test [3], this molecule displayed a dissociation constant (Kd) of 21000 pM, a koff of 0.0018 s⁻¹ and a kon of 84000 M⁻¹ s⁻¹. Besides, the “EC50 (read off the curve)” value in test [4] was approximately 2000 pM. In test [5], a half-maximal effect (EC50) was put at 270 pM and the “Max MFI” value stood at 4750 MFI. In addition, in test [6], the EC50 amounted to 400 pM and the “Max MFI” value is 10400 MFI. Besides, in test [7], the “4-1BB Reporter Assay EC50” value worked out at 13 pM and the “4-1BB Reporter Assay Max induction” value is 6.82e+06. Also, in test [8], the “OX40 Reporter Assay EC50” value was 13 pM and the “OX40 Reporter Assay Max induction” value amounted to 2.03e+06.
